Test results taken from patent US20240269176A1 (Hoffmann-La Roche, published 2024).
Where two headings read alike, the source gives them in different places. Each block holds one binder with its values, some of them ahead of it.

What was measured:
[1] = biological target: VH1VL1-CD8ATD-CD137CSD-CD3zSSD fusion; assay: cell-based or functional assay
[2] = biological target: VH2VL1-CD8ATD-CD137CSD-CD3zSSD fusion; assay: cell-based or functional assay
[3] = biological target: VL1VH3-CD8ATD-CD137CSD-CD3zSSD fusion; assay: cell-based or functional assay
[4] = biological target: VH3VL1-CD8ATD-CD137CSD-CD3zSSD fusion; assay: cell-based or functional assay
murinPG-Fab-CAR = assay: cell-based or functional assay
[5] = biological target: VH1VL1-CD8ATD-CD137CSD-CD3zSSD fusion; assay: cell-based or functional assay; remark: listed apart in the source
[6] = biological target: VL1VH3-CD8ATD-CD137CSD-CD3zSSD fusion; assay: cell-based or functional assay; remark: listed apart in the source
[7] = biological target: VH3VL1-CD8ATD-CD137CSD-CD3zSSD fusion; assay: cell-based or functional assay; remark: listed apart in the source
[8] = biological target: T1, VH1VL1-CD8ATD-CD137CSD-CD3zSSD fusion; assay: NFAT-luciferase reporter assay, anti-P329G CAR Jurkat cells with WSUDLCL2 (CD20+) target cells
T1 construct: Chimeric antigen receptor on Jurkat NFAT reporter T cells; also called VH1VL1 P329G-CAR
T1 sequence (chain, as listed by the source): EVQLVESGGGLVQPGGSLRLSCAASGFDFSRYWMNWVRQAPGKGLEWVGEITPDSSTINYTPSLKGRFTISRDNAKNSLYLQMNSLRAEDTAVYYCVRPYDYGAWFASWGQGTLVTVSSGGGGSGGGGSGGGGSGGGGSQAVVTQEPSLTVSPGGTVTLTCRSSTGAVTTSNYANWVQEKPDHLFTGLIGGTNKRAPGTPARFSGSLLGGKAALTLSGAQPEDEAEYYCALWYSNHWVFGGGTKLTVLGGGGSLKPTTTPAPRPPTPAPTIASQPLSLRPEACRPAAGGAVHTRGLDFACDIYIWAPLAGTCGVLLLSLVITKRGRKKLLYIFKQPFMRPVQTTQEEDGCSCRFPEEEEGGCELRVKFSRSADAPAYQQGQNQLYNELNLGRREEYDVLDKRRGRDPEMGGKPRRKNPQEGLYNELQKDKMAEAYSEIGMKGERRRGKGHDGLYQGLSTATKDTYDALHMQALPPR
Method: (§1) Binding of the CAR to an immobilized adapter molecule (e.g. a tumor antigen bound adapter molecule) leads to CAR crosslinking resulting in T cell activation and in the expression of luciferase. […] The 384 well plate was centrifuged for 1 min at 300 g and RT and incubated at 37° C. and 5% CO₂ in a humidity atmosphere. After 7 h incubation 20% of the final volume of ONE-Glo™ Luciferase Assay (E6120, Promega) was added, and plates were centrifuged for 1 min at 350×g. Afterwards, the relative luminescence units (RLU) per s/well were measured immediately using a Tecan microplate reader. Concentration-response curves were fitted and EC₅₀ values were calculated using GraphPadPrism version 7. As p value the New England Journal of Medicine style was used as listed in GraphPadPrism 7. Meaning *=P≤0,033; **=P≤0,002; ***=P≤0,001.

[9] = biological target: T2, VH2VL1-CD8ATD-CD137CSD-CD3zSSD fusion; assay: as above
T2 construct: Chimeric antigen receptor on Jurkat NFAT reporter T cells; also called VH2VL1 P329G-CAR
T2 sequence (chain, as listed by the source): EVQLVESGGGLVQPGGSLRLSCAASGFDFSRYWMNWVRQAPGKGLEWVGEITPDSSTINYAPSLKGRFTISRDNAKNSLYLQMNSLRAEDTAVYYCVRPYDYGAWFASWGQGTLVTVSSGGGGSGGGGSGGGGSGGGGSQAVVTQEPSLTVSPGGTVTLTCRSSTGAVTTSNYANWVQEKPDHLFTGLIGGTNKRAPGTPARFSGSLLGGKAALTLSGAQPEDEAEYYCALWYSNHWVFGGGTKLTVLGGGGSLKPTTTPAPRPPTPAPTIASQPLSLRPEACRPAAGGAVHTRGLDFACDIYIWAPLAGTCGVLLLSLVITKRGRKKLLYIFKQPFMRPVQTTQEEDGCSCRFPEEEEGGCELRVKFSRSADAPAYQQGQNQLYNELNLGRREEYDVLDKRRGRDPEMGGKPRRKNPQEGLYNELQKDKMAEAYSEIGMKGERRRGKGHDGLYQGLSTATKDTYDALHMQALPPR
Method: as §1

[10] = biological target: T3, VL1VH3-CD8ATD-CD137CSD-CD3zSSD fusion; assay: as above
T3 construct: Chimeric antigen receptor with scFv in VL-linker-VH orientation on Jurkat NFAT reporter T cells; the entry may be incomplete
T3 sequence (chain, as listed by the source): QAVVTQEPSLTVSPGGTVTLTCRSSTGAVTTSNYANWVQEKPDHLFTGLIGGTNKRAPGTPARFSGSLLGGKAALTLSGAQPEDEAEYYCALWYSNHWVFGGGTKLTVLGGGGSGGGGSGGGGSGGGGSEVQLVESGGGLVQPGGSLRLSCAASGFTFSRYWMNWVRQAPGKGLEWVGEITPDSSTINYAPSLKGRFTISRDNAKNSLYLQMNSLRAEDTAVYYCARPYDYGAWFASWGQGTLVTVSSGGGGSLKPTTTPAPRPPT
Method: as §1

[11] = biological target: T4, VH3VL1-CD8ATD-CD137CSD-CD3zSSD fusion; assay: as above
T4 construct: Chimeric antigen receptor with humanized anti-P329G scFv (VH-linker-VL), expressed on Jurkat NFAT reporter T cells; expression construct carried a T2A-GFP reporter
T4 sequence (chain, as listed by the source): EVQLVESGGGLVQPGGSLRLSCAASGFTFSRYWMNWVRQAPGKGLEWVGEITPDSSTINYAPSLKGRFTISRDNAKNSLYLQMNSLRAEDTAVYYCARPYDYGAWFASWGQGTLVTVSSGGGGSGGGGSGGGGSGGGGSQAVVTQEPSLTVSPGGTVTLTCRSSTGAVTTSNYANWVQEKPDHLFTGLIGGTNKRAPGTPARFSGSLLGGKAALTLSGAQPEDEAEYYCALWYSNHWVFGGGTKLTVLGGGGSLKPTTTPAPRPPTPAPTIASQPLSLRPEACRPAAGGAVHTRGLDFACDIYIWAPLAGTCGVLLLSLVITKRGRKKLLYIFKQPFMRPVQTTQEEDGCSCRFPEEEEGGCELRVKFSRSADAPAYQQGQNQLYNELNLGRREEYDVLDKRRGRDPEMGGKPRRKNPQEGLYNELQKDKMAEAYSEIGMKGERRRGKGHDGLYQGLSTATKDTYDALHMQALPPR
Method: as §1

[12] = biological target: T1, VH1VL1-CD8ATD-CD137CSD-CD3zSSD fusion; assay: cell-based or functional assay; remark: listed apart in the source
[13] = biological target: T3, VL1VH3-CD8ATD-CD137CSD-CD3zSSD fusion; assay: cell-based or functional assay; remark: listed apart in the source
[14] = biological target: T1, VH1VL1-CD8ATD-CD137CSD-CD3zSSD fusion; assay: NFAT-luciferase reporter assay, anti-P329G CAR Jurkat cells with WSUDLCL2 (CD20+) target cells; remark: listed apart in the source
Method: as §1

[15] = biological target: T2, VH2VL1-CD8ATD-CD137CSD-CD3zSSD fusion; assay: as above; remark: listed apart in the source
Method: as §1

[16] = biological target: T3, VL1VH3-CD8ATD-CD137CSD-CD3zSSD fusion; assay: as above; remark: listed apart in the source
Method: as §1

[17] = biological target: T4, VH3VL1-CD8ATD-CD137CSD-CD3zSSD fusion; assay: as above; remark: listed apart in the source
Method: as §1

- EC50 of NFAT-luciferase activation of anti-P329G CAR Jurkat cells, WSUDLCL2 target cells (5:1); VH1 x VL1 [1]: 8.1 pM
- EC50 of NFAT-luciferase activation of anti-P329G CAR Jurkat cells, WSUDLCL2 target cells (5:1); table row VH2 x VL1 [2]: ~6.93 pM
- EC50 of NFAT-luciferase activation of anti-P329G CAR Jurkat cells, WSUDLCL2 target cells (5:1); VL1 x VH 3 [3]: ~6.58 pM
- EC50 of NFAT-luciferase activation of anti-P329G CAR Jurkat cells, WSUDLCL2 target cells (5:1); VH3 x VL1 [4]: 7.57 pM
B1: anti-CD20 (GA101) P329G LALA IgG1 (antibody)
heavy: not shown
light: DIVMTQTPLSLPVTPGEPASISCRSSKSLLHSNGITYLYWYLQKPGQSPQLLIYQMSNLVSGVPDRFSGSGSGTDFTLKISRVEAEDVGVYYCAQNLELPYTFGGGTKVEIKRTVAAPSVFIFPPSDEQLKSGTASVVCLLNNFYPREAKVQWKVDNALQSGNSQESVTEQDSKDSTYSLSSTLTLSKADYEKHKVYACEVTHQGLSSPVTKSFNRGEC

- EC50 (read off the curve); NFAT-luciferase, anti-P329G CAR Jurkat reporter cells (panel title murinPG-Fab-CAR activation) with WSUDLCL2 CD20+ target cells (murinPG-Fab-CAR): ~20 pM
B2: anti-CD20 (GA101) heterodimeric IgG1 (antibody)
heavy 1: QVQLVQSGAEVKKPGSSVKVSCKASGYAFSYSWINWVRQAPGQGLEWMGRIFPGDGDTDYNGKFKGRVTITADKSTSTAYMELSSLRSEDTAVYYCARNVFDGYWLVYWGQGTLVTVSSASTKGPSVFPLAPSSKSTSGGTAALGCLVKDYFPEPVTVSWNSGALTSGVHTFPAVLQSSGLYSLSSVVTVPSSSLGTQTYICNVNHKPSNTKVDKKVEPKSCDKTHTCPPCPAPELLGGPSVFLFPPKPKDTLMISRTPEVTCVVVDVSHEDPEVKFNWYVDGVEVHNAKTKPREEQYNSTYRVVSVLTVLHQDWLNGKEYKCKVSNKALGAPIEKTISKAKGQPREPQVYTLPPCRDELTKNQVSLWCLVKGFYPSDIAVEWESNGQPENNYKTTPPVLDSDGSFFLYSKLTVDKSRWQQGNVFSCSVMHEALHNHYTQKSLSLSP
heavy 2: QVQLVQSGAEVKKPGSSVKVSCKASGYAFSYSWINWVRQAPGQGLEWMGRIFPGDGDTDYNGKFKGRVTITADKSTSTAYMELSSLRSEDTAVYYCARNVFDGYWLVYWGQGTLVTVSSASTKGPSVFPLAPSSKSTSGGTAALGCLVKDYFPEPVTVSWNSGALTSGVHTFPAVLQSSGLYSLSSVVTVPSSSLGTQTYICNVNHKPSNTKVDKKVEPKSCDKTHTCPPCPAPELLGGPSVFLFPPKPKDTLMISRTPEVTCVVVDVSHEDPEVKFNWYVDGVEVHNAKTKPREEQYNSTYRVVSVLTVLHQDWLNGKEYKCKVSNKALPAPIEKTISKAKGQPREPQVCTLPPSRDEL
light: DIVMTQTPLSLPVTPGEPASISCRSSKSLLHSNGITYLYWYLQKPGQSPQLLIYQMSNLVSGVPDRFSGSGSGTDFTLKISRVEAEDVGVYYCAQNLELPYTFGGGTKVEIKRTVAAPSVFIFPPSDEQLKSGTASVVCLLNNFYPREAKVQWKVDNALQSGNSQESVTEQDSKDSTYSLSSTLTLSKADYEKHKVYACEVTHQGLSSPVTKSFNRGEC
modifications: defucosylated

- EC50 of NFAT-luciferase activation of anti-P329G CAR Jurkat cells, WSUDLCL2 target cells (5:1); curve flat at 50-150 RLU/s, fit without meaning; VH1 x VL1 [5]: ~2.19 pM
- EC50 of NFAT-luciferase activation of anti-P329G CAR Jurkat cells, WSUDLCL2 target cells (5:1); curve flat at 50-150 RLU/s, fit without meaning; VL1 x VH 3 [6]: ~78.3 pM
- EC50 of NFAT-luciferase activation of anti-P329G CAR Jurkat cells, WSUDLCL2 target cells (5:1); curve flat at 50-150 RLU/s, fit without meaning; VH3 x VL1 [7]: ~85 pM
B3: anti-CD20 (GA101) wild type IgG1 (antibody)
heavy: not shown
light: DIVMTQTPLSLPVTPGEPASISCRSSKSLLHSNGITYLYWYLQKPGQSPQLLIYQMSNLVSGVPDRFSGSGSGTDFTLKISRVEAEDVGVYYCAQNLELPYTFGGGTKVEIKRTVAAPSVFIFPPSDEQLKSGTASVVCLLNNFYPREAKVQWKVDNALQSGNSQESVTEQDSKDSTYSLSSTLTLSKADYEKHKVYACEVTHQGLSSPVTKSFNRGEC
notes: also called WT GA101
- binding result [8]: no binding (tested: just below 10^2 nM (67 nM per paragraph 404))
- binding result [9]: no binding (tested: just below 10^2 nM (67 nM per paragraph 404))
- binding result [10]: no binding (tested: just below 10^2 nM (67 nM per paragraph 404))
- binding result [11]: no binding (tested: just below 10^2 nM (67 nM per paragraph 404))

- EC50 of NFAT-luciferase activation of anti-P329G CAR Jurkat cells, WSUDLCL2 target cells (5:1); curve flat at 60-150 RLU/s, fit without meaning; VH1 x VL1 [12]: ~0.0485 pM
- EC50 of NFAT-luciferase activation of anti-P329G CAR Jurkat cells, WSUDLCL2 target cells (5:1); curve flat at 60-150 RLU/s, fit without meaning; VL1 x VH 3 [13]: ~0.000234 pM
B4: anti-CD20 (GA101) LALA IgG1 (antibody)
heavy: not shown
light: DIVMTQTPLSLPVTPGEPASISCRSSKSLLHSNGITYLYWYLQKPGQSPQLLIYQMSNLVSGVPDRFSGSGSGTDFTLKISRVEAEDVGVYYCAQNLELPYTFGGGTKVEIKRTVAAPSVFIFPPSDEQLKSGTASVVCLLNNFYPREAKVQWKVDNALQSGNSQESVTEQDSKDSTYSLSSTLTLSKADYEKHKVYACEVTHQGLSSPVTKSFNRGEC
- binding result [14]: no binding (tested: just below 10^2 nM (67 nM per paragraph 404))
- binding result [15]: no binding (tested: just below 10^2 nM (67 nM per paragraph 404))
- binding result [16]: no binding (tested: just below 10^2 nM (67 nM per paragraph 404))
- binding result [17]: no binding (tested: just below 10^2 nM (67 nM per paragraph 404))
